Experimental data as given in PMC5292662, “PKU mutation p.G46S prevents the stereospecific binding of L‐phenylalanine to the dimer of human phenylalanine hydroxylase regulatory domain” (FEBS Open Bio, 2017).
Where a chain is given by its changes, count along the chain named. Names may count otherwise.

B1: wt‐MBP‐(pep)Xa‐hPAH‐RD^1–120 fusion protein (domain or fragment, human, UniProt P00439 1-120, looked up)
chain: MSTAVLENPGLGRKLSDFGQETSYIEDNCNQNGAISLIFSLKEEVGALAKVLRLFEENDVNLTHIESRPSRLKKDEYEFFTHLDKRSLPALTNIIKILRHDIGATVHELSRDKKKDTVPW
notes: N-terminal regulatory domain (RD) of human phenylalanine hydroxylase (hPAH), residues 1-120 (stop signal introduced in codon 121), SwissProt P00439; From pMAL‐hPAH‐RD^1–120 (pMAL-c2 vector); a factor Xa cleavage peptide (pep)Xa lies between MBP and the RD; Isolated by SEC as a dimeric and a monomeric fraction; also called MBP‐hPAH‐RD^1–120; wt‐MBP‐hPAH‐RD; source: E. coli, purified (amylose …)
B2: MBP‐hPAH‐G46S‐RD^1–120 fusion protein (domain or fragment, human, UniProt P00439 1-120, looked up)
chain: B1 chain with G46S
notes: From pMAL‐hPAH‐G46S‐RD^1–120; a factor Xa cleavage peptide lies between MBP and the RD; G46S is a mutation found in patients with phenylketonuria; also called hPAH‐G46S‐RD^1–120 dimer fusion protein; source: E. coli, purified (amylose resin, SEC); not shown: MBP, N-terminal, kept

Target: the molecule itself
Experiment: SEC; HiLoad Superdex 200 HR column (1.6 cm × 60 cm), 20 mM Na‐Hepes, 0.2 M NaCl, pH 7.0, 0.38 mL·min^−1, 4 °C; masses estimated from standard markers; dimer to monomers

Protein | stoichiometry N
B1 | 2
B2 | 2
